Consider four molecules from patent US20120231006A1 (Amgen, published 2012).

Experiment [1] concerns the target T1, hOrai1-mOrai1 ECL2 chimeric protein (human/mouse chimera, UniProt Q96D31 1-301).
T1 construct: human Orai1 with mouse ECL2; also called Ch
Nature of the experiment: FACS, 293EBNA. On the set-up: concentration or dose not given beside the values. From the text:
(§1) FIG. 17A-D illustrates the results of FACS analysis showing binding to the indicated mOrai1-hOrai1 ECL2 chimeric mutants expressed on the surface of HEK-293-EBNA cells. Transfected cells were stained first with recombinant monoclonal antibodies then counter-stained with a secondary phycoerythrin-labeled goat (“Gt”) anti-human (“Hu”) IgG F(ab′)₂ antibody fragment and visualized using FACS.
(§2) Representative results of FACS analysis of binding to the mutant hOrai1-mOrai1 ECL2 chimera described above by exemplary anti-hOrai1 antibodies of the present invention are shown in FIG. 17A-D, Table 10A and Table 10B below. Table 10A (Campaign 1) and Table 10B (Campaign 2) show the gain in binding ability of exemplary monoclonal antibodies to hOrai 1-mOrai 1 ECL2 chimera mutants as determined by FACS.
A general note: In flow cytometry, cells or beads pass a laser one at a time.

In experiment [2] the target is T2, hOrai1-mOrai1 ECL2 (GAA) protein (human/mouse chimera, UniProt Q96D31 1-301).
T2 construct: also called Ch
Nature of the experiment: FACS, 293EBNA. Set-up: concentration or dose not given beside the values.
Excerpt: as §1, §2

Experiment [3] concerns the target T3, hOrai1-mOrai1 ECL2 (PASGAA) protein (human/mouse chimera, UniProt Q96D31 1-301).
T3 construct: also called Ch
Nature of the experiment: FACS, 293EBNA. On the set-up: concentration or dose not given beside the values.
Excerpt: as §1, §2

The target in experiment [4] is T4, hOrai1-mOrai1 ECL2 (AANVST) protein (human/mouse chimera, UniProt Q96D31 1-301).
T4 construct: also called Ch
The experiment can be described thus: FACS, 293EBNA. On the set-up: concentration or dose not given beside the values.
Excerpt: as §1, §2

The target in experiment [5] is T5, hOrai1-mOrai1 ECL2 (VST) protein (human/mouse chimera, UniProt Q96D31 1-301).
T5 construct: also called Ch
Nature of the experiment: FACS, 293EBNA. Set-up: concentration or dose not given beside the values.
Excerpt: as §1, §2

In experiment [6] the target is T6, hOrai1-mOrai1 ECL2 (…) protein (human/mouse chimera, UniProt Q96D31 1-301).
T6 construct: also called Ch
Nature of the experiment: FACS, 293EBNA. Set-up: concentration or dose not given beside the values.
Excerpt: as §1, §2

The target in another experiment is T7, human Orai1 (human, UniProt Q96D31 1-301).
T7 construct: on AM1-CHO/hOrai1/hSTIM1-YFP, AM1/hOrai1, HEK-293 transfectants, endogenous on Jurkat and blood cells; in Westerns from cell lysates; also called hOrai1; CRACM1
Nature of the experiment: FACS Kd, AM1-CHO/hOrai1/hSTIM1-YFP cells. The procedure:
The equilibrium plates were centrifuged at 500 g for 3 minutes and cell pellets were washed twice with 200 μL of ice cold FACS buffer (1×D-PBS+2% FBS). The cells were then incubated with a secondary antibody, goat anti-human Fc Cy5 at 5 μg/mL and 100 μL per well for 1 h on ice in the dark. Following the incubation, the cells were washed twice with 200 μL of ice-cold FACS buffer before flow cytometry analysis. The GeoMean values gated on live cell population measure the bound [Ab]. The inverse of the GeoMean values that reflects theoretical free [Ag] in the equilibrium solution was then calculated. The inverse values of the GeoMean read were used in KinExA® Pro software for analysis and Kd calculation for each antibody. The free [Ag] measure was plotted against the starting concentration of titrating component and from these plots at two different cell concentrations the Kd was obtained from curve fitting using n-curve analysis in KinExA Pro software. […] Shown in Table 14 (below) are the equilibrium dissociation constant (Kd) values of invented mAbs determined by FACS Kd measurement.

Experiment [7] addresses T8, mOrai1-hOrai1 ECL2 (KPPAE) protein (human/mouse chimera, UniProt Q8BWG9 1-304 (mouse entry)).
T8 construct: also called Ch
Nature of the experiment: FACS, 293EBNA. On the set-up: concentration or dose not given beside the values. An excerpt: (§3) FIG. 16A-D illustrates the results of FACS analysis showing binding to the indicated mOrai1-hOrai1 ECL2 chimeric mutants expressed on the surface of HEK-293-EBNA cells. Transfected cells were stained first with recombinant monoclonal antibodies then counter-stained with a secondary phycoerythrin-labeled goat (“Gt”) anti-human (“Hu”) IgG F(ab′)₂ antibody fragment and visualized using FACS. In FIG. 16B and FIG. 16D, The values of Relative Fluorescence Intensity as Percent of Control (RFI-POC) are calculated from the relative fluorescence intensity geometric mean (Geo Mean). The geometric mean is an average calculated by multiplying a series of numbers and taking the nth root where n is the number of numbers in the series. It is a statistical average of a set of transformed numbers often used to represent a central tendency in a highly variable data set that minimizes the effects of extreme values.
(§4) Table 11A and Table 11B feature a schematic representation of the POC data from FIG. 16B and FIG. 16D, respectively, where the binding results are recorded as (+++) denoting binding POC from 40% to 100%, (++) for POC of 5% to less than 40%, (+) for POC from 1% to less than 5% and (−) as lack of binding with POC less than 1%.

Experiment [8] addresses T1, hOrai1-mOrai1 ECL2 chimeric protein. The experiment can be described thus: FACS, 293EBNA. Set-up: concentration or dose not given beside the values.
Excerpt: as §3, §4
The source holds these as a separate data set.

Experiment [9] has as its target T9, mOrai1-hOrai1 ECL2 (SPTKPPAE) protein (human/mouse chimera, UniProt Q8BWG9 1-304 (mouse entry)).
T9 construct: also called Ch
Nature of the experiment: FACS, 293EBNA. On the set-up: concentration or dose not given beside the values.
Excerpt: as §3, §4

The target of experiment [10] is T10, mOrai1-hOrai1 ECL2 (…) protein (human/mouse chimera, UniProt Q8BWG9 1-304 (mouse entry)).
T10 construct: also called Ch
Nature of the experiment: FACS, 293EBNA. On the set-up: concentration or dose not given beside the values.
Excerpt: as §3, §4
T10 sequence (Q8BWG9 other isoform, or with tags, fused parts or gaps): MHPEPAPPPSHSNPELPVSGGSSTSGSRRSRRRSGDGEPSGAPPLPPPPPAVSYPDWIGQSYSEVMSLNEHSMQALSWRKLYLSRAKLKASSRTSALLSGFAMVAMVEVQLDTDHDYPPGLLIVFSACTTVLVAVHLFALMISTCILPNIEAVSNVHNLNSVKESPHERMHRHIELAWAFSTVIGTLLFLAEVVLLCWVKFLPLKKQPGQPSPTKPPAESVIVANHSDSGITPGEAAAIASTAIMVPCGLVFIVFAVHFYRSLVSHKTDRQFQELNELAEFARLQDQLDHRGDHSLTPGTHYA

The target of experiment [11] is T11, mOrai1-hOrai1 ECL2 (…) protein (human/mouse chimera, UniProt Q8BWG9 1-304 (mouse entry)).
T11 construct: also called Ch
Nature of the experiment: FACS, 293EBNA. On the set-up: concentration or dose not given beside the values.
Excerpt: as §3, §4
T11 sequence (Q8BWG9 other isoform, or with tags, fused parts or gaps): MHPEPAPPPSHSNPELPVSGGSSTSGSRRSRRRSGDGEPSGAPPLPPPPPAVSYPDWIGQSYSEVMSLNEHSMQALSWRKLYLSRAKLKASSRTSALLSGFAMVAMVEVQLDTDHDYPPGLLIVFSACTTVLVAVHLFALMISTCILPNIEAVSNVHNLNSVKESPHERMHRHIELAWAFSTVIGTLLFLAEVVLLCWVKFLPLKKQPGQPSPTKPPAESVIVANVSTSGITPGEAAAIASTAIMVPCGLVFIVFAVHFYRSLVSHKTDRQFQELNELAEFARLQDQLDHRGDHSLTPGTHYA
The source holds these as a separate data set.

Experiment [12] has as its target T12, mOrai1-hOrai1 ECL2 (…) protein (human/mouse chimera, UniProt Q8BWG9 1-304 (mouse entry)).
T12 construct: also called Ch
The experiment can be described thus: FACS, 293EBNA. On the set-up: concentration or dose not given beside the values.
Excerpt: as §3, §4
T12 sequence (Q8BWG9 other isoform, or with tags, fused parts or gaps): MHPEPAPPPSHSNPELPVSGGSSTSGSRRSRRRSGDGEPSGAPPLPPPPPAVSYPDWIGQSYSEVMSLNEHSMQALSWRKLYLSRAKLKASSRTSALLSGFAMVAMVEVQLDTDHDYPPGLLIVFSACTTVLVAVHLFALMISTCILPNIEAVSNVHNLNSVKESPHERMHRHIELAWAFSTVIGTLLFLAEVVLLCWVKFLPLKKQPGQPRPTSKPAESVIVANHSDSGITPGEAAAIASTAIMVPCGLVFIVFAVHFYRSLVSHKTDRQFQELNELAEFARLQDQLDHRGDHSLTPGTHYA
The source holds these as a separate data set.

Experiment [13] deals with T13, mOrai1-hOrai1 ECL2 (…) protein (human/mouse chimera, UniProt Q8BWG9 1-304 (mouse entry)).
T13 construct: also called Ch
Nature of the experiment: FACS, 293EBNA. Set-up: concentration or dose not given beside the values.
Excerpt: as §3, §4
T13 sequence (Q8BWG9 other isoform, or with tags, fused parts or gaps): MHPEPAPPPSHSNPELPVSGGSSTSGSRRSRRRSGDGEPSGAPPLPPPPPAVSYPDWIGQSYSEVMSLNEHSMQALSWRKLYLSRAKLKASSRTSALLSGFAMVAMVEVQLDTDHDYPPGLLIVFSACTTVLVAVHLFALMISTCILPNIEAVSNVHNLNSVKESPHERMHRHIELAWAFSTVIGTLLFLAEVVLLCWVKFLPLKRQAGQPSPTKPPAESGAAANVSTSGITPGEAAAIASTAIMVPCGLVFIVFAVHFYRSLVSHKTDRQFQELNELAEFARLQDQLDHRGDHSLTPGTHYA
This is another data set of the same source.

The target of experiment [14] is T14, mOrai1-hOrai1 ECL2 (AESVIV) protein (human/mouse chimera, UniProt Q8BWG9 1-304 (mouse entry)).
T14 construct: also called Ch
Nature of the experiment: FACS, 293EBNA. On the set-up: concentration or dose not given beside the values.
Excerpt: as §3, §4

T6 sequence (Q96D31 other isoform, or with tags, fused parts or gaps): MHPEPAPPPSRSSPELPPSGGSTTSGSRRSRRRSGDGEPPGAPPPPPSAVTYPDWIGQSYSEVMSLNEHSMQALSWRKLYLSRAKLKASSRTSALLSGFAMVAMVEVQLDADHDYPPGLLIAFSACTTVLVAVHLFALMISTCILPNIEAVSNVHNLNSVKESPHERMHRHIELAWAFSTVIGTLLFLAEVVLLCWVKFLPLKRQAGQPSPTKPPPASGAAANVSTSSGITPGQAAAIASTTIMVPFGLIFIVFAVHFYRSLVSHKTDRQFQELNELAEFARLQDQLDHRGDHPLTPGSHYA
T5 sequence (Q96D31 other isoform, or with tags, fused parts or gaps): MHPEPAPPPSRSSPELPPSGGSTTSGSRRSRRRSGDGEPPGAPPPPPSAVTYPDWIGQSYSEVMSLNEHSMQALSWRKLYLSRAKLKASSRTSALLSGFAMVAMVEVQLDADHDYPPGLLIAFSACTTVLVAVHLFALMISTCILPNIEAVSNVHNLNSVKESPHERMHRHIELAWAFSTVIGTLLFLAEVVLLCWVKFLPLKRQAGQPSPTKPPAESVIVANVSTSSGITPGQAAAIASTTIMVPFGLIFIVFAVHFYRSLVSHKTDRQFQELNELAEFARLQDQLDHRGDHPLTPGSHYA
T3 sequence (Q96D31 other isoform, or with tags, fused parts or gaps): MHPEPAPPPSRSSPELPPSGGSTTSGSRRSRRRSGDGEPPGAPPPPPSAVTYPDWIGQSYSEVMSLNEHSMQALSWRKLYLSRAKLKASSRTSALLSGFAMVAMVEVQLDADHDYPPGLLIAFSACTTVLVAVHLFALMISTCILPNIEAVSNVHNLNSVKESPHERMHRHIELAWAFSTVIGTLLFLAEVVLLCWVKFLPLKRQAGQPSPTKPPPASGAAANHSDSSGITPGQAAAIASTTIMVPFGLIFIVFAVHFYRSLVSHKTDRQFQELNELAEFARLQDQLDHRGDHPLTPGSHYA
T9 sequence (Q8BWG9 other isoform, or with tags, fused parts or gaps): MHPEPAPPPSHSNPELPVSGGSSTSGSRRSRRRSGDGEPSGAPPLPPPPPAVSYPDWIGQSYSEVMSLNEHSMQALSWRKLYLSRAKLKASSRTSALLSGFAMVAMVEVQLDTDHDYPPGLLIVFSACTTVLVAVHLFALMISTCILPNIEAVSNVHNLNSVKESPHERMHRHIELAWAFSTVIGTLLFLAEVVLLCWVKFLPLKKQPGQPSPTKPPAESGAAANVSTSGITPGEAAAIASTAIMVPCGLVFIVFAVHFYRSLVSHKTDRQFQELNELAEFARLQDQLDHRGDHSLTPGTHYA
T14 sequence (Q8BWG9 other isoform, or with tags, fused parts or gaps): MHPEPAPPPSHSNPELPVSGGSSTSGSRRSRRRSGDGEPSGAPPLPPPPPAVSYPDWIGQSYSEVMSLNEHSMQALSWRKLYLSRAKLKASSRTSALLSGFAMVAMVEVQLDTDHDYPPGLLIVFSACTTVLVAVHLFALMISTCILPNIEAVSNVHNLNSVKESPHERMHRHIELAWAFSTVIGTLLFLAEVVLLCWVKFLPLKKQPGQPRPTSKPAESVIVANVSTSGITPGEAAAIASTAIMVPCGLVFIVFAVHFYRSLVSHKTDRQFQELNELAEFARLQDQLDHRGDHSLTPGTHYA
T8 sequence (Q8BWG9 other isoform, or with tags, fused parts or gaps): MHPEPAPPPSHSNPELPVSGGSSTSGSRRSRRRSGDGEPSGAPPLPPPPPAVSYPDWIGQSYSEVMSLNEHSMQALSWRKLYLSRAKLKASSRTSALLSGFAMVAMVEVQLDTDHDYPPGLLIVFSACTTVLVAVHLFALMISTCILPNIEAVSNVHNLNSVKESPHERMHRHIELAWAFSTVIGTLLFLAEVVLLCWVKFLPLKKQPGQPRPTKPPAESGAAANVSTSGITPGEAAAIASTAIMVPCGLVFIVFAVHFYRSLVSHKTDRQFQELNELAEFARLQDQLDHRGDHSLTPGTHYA
T2 sequence (Q96D31 other isoform, or with tags, fused parts or gaps): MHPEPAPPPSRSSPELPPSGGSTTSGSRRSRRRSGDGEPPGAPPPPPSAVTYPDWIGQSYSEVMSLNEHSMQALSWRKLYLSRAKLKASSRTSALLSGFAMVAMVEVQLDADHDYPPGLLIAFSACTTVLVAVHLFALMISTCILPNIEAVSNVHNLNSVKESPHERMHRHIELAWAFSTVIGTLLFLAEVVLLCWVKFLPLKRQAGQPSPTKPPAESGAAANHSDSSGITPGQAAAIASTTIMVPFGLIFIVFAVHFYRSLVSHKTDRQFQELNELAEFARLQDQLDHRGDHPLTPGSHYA
T4 sequence (Q96D31 other isoform, or with tags, fused parts or gaps): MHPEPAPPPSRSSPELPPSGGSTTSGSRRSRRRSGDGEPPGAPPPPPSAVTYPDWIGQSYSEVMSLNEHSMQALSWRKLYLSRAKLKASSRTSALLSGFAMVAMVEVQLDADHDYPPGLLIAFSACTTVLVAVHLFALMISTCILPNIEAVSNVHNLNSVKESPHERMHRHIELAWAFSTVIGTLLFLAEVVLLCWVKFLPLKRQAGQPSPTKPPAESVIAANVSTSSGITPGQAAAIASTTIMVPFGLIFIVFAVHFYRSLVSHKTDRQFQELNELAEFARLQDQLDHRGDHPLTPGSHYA
T1 sequence (Q96D31 other isoform, or with tags, fused parts or gaps mutant): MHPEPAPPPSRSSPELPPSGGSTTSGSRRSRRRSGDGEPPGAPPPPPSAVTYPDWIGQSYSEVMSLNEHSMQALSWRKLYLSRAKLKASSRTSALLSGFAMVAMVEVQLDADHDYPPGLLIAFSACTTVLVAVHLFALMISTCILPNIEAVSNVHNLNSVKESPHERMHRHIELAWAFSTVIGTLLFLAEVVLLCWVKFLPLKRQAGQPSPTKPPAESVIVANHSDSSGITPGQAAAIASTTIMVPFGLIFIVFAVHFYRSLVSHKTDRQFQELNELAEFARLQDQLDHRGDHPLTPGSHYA
T7 sequence (Q96D31 whole entry): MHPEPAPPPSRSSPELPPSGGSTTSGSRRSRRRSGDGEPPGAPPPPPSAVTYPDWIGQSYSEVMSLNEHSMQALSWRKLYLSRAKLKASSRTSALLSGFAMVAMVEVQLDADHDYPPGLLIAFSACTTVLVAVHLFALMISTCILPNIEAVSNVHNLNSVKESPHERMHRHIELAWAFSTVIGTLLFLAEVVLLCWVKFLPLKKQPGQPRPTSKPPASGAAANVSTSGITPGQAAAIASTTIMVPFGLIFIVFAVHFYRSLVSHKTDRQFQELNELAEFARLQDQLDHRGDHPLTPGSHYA

B1: mAb 5F7.1 (antibody, human IgG2, lambda)
heavy: QVQLVQSGAEVKKPGASVKVPCKASGYTFTDYYINWVRQAPGQGLEWMGWINPNNGGTNYAQKFQGRVTMTRDTSISTAYMELRRLRSDDTAVYYCARERGGYEDWFDPWGQGTLVTVSSASTKGPSVFPLAPCSRSTSESTAALGCLVKDYFPEPVTVSWNSGALTSGVHTFPAVLQSSGLYSLSSVVTVPSSNFGTQTYTCNVDHKPSNTKVDKTVERKCCVECPPCPAPPVAGPSVFLFPPKPKDTLMISRTPEVTCVVVDVSHEDPEVQFNWYVDGVEVHNAKTKPREEQFNSTFRVVSVLTVVHQDWLNGKEYKCKVSNKGLPAPIEKTISKTKGQPREPQVYTLPPSREEMTKNQVSLTCLVKGFYPSDIAVEWESNGQPENNYKTTPPMLDSDGSFFLYSKLTVDKSRWQQGNVFSCSVMHEALHNHYTQKSLSLSPGK
light: QSVLTQPPSVSGAPGQRVTISCTGSSSNIGAGFDVHWYQQLPVTAPKLLIYGNRNRPSGVPARFSGSKSGTSASLAITGLQAEDEAVYYCQSYDSSLTVFGGGTKLTVLGQPKANPTVTLFPPSSEELQANKATLVCLISDFYPGAVTVAWKADGSPVKAGVETTKPSKQSNNKYAASSYLSLTPEQWKSHRSYSCQVTHEGSTVEKTVAPTECS
notes: fully human IgG2 lambda, Campaign 2
Regarding B1, the “percent of control (POC) of FACS Geo Mean” value (from here on “percent … of FACS Geo Mean”) in [1], in experiment [2], in [3], in [4], in experiment [5] and in experiment [6] was less than 1% in each case. Binding with human Orai1 was put at a Kd of 0.185 nM. Further, the “POC (percent of control, FACS Geo Mean relative to binding to Ch. 1)” value in experiment [7], in experiment [8], in experiment [9], in experiment [10], in experiment [11] and in [12] was less than 1% in each case. In addition, the “POC (percent of control, FACS Geo Mean relative to binding to Ch. 1)” value in [13] and in [14] was less than 1% throughout.

B2: mAb 5A1.1 (antibody, human IgG2)
heavy: QVQLVQSGAEVKKPGASVKVPCKASGYTFTDYYINWVRQAPGQGLEWMGWINPNNGGTNYAQKFQGRVTMTRDTSISTAYMELRRLRSDDTAVYYCARERGGYEDWFDPWGQGTLVTVSSASTKGPSVFPLAPCSRSTSESTAALGCLVKDYFPEPVTVSWNSGALTSGVHTFPAVLQSSGLYSLSSVVTVPSSNFGTQTYTCNVDHKPSNTKVDKTVERKCCVECPPCPAPPVAGPSVFLFPPKPKDTLMISRTPEVTCVVVDVSHEDPEVQFNWYVDGVEVHNAKTKPREEQFNSTFRVVSVLTVVHQDWLNGKEYKCKVSNKGLPAPIEKTISKTKGQPREPQVYTLPPSREEMTKNQVSLTCLVKGFYPSDIAVEWESNGQPENNYKTTPPMLDSDGSFFLYSKLTVDKSRWQQGNVFSCSVMHEALHNHYTQKSLSLSPGK
VL: QSVLTQPPSVSGAPGQRVTISCTGSSSNIGAGFDVHWYQQLPVTAPKLLIYGNRNRPSGVPARFSGSKSGTSASLAITGLQAEDEAVYYCQSYDSSLTVFGGGTKLTVL
notes: fully human, Campaign 2; lambda CL-1
Consider B2, for which the “percent … of FACS Geo Mean” value in [1], in experiment [2], in experiment [3], in experiment [4], in experiment [5] and in [6] was less than 1% each time. Also, the “POC (percent of control, FACS Geo Mean relative to binding to Ch. 1)” value in [7], in experiment [8], in [9], in [10], in experiment [11] and in [12] was less than 1% each time. The “POC (percent of control, FACS Geo Mean relative to binding to Ch. 1)” value in [13] and in [14] was less than 1% each time.

B3: mAb 5C1.1 (antibody, human IgG2, lambda, V domains shown)
VH: QVQLVQSGAEVKKPGASVKVSCKASGYTFTDYYMNWVRQAPGQGLEWMGWINPNSGGTKYAQKFQGRVTMTRDTSIRTAYMELSRLRSDDTAVYYCAREYGGNSDWFDPWGQGTLVTVSS
VL: QSVLTQPPSVSGAPGQRVTISCTGSSSNIGAGYDVHWYQQLPGTAPKLLIYGNSNRPSGVPDRFSGSKSGTSASLAITGLQAEDEADYYCQSYDNRLSDSVVIGGGTKLAVQG
notes: as for B1
Turning to B3, the “percent … of FACS Geo Mean” value in experiment [1], in experiment [2], in experiment [3], in experiment [4], in experiment [5] and in [6] was less than 1% in each case. Besides, the “POC (percent of control, FACS Geo Mean relative to binding to Ch. 1)” value in [7], in [8], in experiment [9], in experiment [10], in [11] and in experiment [12] was less than 1% each time. For the same molecule, the “POC (percent of control, FACS Geo Mean relative to binding to Ch. 1)” value in [13] and in [14] was less than 1% in each case.

B4: mAb 5B5.2 (antibody, human IgG2, lambda, V domains shown)
VH: QVQLVQSGAEVKKPGASVKVSCKASGYTFTDYYINWVRQAPGQGLEWMGWINPNSGGTDYAQKFQGRVTMTRDTSIRTAYMELNRLTSDDTAVYYCAREYGGYEDWFDPWGQGTLVTVSS
VL: QSVLTQPPSVSGAPGQRVTISCTGSNSNIGAGFDVHWYQQLPGTVPKLLIYGNNNRPSGVPDRFSGSKSGTSASLAITGLQAEDEADYYCQSYDSRLTVFGGGTKLTVLG
notes: fully human IgG2 lambda, Campaign 2; same chains as 5B5.1
With B4, the “percent … of FACS Geo Mean” value in experiment [1], in [2], in experiment [3], in experiment [4], in experiment [5] and in experiment [6] was less than 1% in each case. Besides, the “POC (percent of control, FACS Geo Mean relative to binding to Ch. 1)” value in [7], in experiment [8], in experiment [9], in [10], in [11] and in [12] was less than 1% in each case. For the same molecule, the “POC (percent of control, FACS Geo Mean relative to binding to Ch. 1)” value in [13] and in experiment [14] was less than 1% each time.

By Kd is commonly meant the free concentration of one partner at which half of the binding sites on the other are occupied at equilibrium, for simple one-to-one binding.
